Literature values as cited in article PMC11313252.

Target: EGFR (Homo sapiens) (UniProt P00533)

EGF (from UniProt P01133)
Kd: 2 nM
